OD (450 nm) value data for one substance are collected here from EP4714976A1.

The target in assay [1] is extracellular domain of the FGFR2b protein (NP_075259.4) (UniProt P21802). Nature of the assay: phage ELISA.
Assay [2] concerns the target extracellular domain of FGFR2c protein (Example 1) (UniProt P21802). Nature of the assay: phage ELISA.

Sequence of extracellular domain of the FGFR2b protein (NP_075259.4) (P21802 other isoform, or with tags, fused parts or gaps): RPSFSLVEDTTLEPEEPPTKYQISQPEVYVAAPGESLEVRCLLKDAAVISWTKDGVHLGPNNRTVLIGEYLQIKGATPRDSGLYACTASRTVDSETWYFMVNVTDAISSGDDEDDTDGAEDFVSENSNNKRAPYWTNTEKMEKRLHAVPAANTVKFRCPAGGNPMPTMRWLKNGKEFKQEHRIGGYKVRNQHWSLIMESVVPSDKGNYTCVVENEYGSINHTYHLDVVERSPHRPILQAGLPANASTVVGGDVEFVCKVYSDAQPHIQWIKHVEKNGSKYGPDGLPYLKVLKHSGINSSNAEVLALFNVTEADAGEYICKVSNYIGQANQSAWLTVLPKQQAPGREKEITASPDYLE
Sequence of extracellular domain of FGFR2c protein (Example 1) (P21802 22-377): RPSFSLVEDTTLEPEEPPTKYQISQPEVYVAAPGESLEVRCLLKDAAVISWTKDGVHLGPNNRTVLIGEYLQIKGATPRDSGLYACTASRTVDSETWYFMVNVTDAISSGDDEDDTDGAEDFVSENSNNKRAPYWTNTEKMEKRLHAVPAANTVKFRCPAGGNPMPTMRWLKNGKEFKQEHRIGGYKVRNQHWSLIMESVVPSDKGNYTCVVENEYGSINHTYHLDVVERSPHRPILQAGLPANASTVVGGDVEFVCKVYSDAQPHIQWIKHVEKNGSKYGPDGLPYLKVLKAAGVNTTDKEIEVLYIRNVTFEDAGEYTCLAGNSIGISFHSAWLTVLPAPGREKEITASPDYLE

With “Negative control (Tables 1 and 2) (antibody)”, the OD (450 nm) value in assay [1] was 0.024; in assay [2], 0.045.
